# B1: PM20D1: PARK16 locus gene overexpression vector (protein, UniProt Q6GTS8 26-502, looked up)
# N-fatty-acyl-amino acid …: MGPRSGEHQRASRIPSQFSKEERVAMKEALKGAIQIPTVTFSSEKSNTTALAEFGKYIHKVFPTVVSTSFIQHEVVEEYSHLFTIQGSDPSLQPYLLMAHFDVVPAPEEGWEVPPFSGLERDGIIYGRGTLDDKNSVMALLQALELLLIRKYIPRRSFFISLGHDEESSGTGAQRISALLQSRGVQLAFIVDEGGFILDDFIPNFKKPIALIAVSEKGSMNLMLQVNMTSGHSSAPPKETSIGILAAAVSRLEQTPMPIIFGSGTVVTVLQQLANEFPFPVNIILSNPWLFEPLISRFMERNPLTNAIIRTTTALTIFKAGVKFNVIPPVAQATVNFRIHPGQTVQEVLELTKNIVADNRVQFHVLSAFDPLPVSPSDDKALGYQLLRQTVQSVFPEVNITAPVTSIGNTDSRFFTNLTTGIYRFYPIYIQPEDFKRIHGVNEKISVQAYETQVKFIFELIQNADTDQEPVSHLHKL
# B2: Rab7WT: TH-driven Drosophila Rab GTPase transgene, wild-type Rab7 (protein, UniProt O76742 1-207, looked up)
# Ras-related protein Rab7: MSGRKKSLLKVIILGDSSVGKTSLMNQYVNKRFSNQYKATIGADFCTKEVVVNDRVVTMQIWDTAGQERFQSLGVAFYRGADCCVLVYDVTAPNSFKNLDSWRDEFLIQASPRDPDHFPFVVLGNKVDLDNRQVSTRRAQQWCQSKNDIPYYETSAKEGINVEMAFQVIAKNALELEAEAEVINDFPDQITLGSQNNRPGNPDNCQC
# B3: SLC45A3: PARK16 locus gene overexpression vector (protein, UniProt Q96JT2 1-553, looked up)
# Solute carrier family 45 …: MVQRLWVSRLLRHRKAQLLLVNLLTFGLEVCLAAGITYVPPLLLEVGVEEKFMTMVLGIGPVLGLVCVPLLGSASDHWRGRYGRRRPFIWALSLGILLSLFLIPRAGWLAGLLCPDPRPLELALLILGVGLLDFCGQVCFTPLEALLSDLFRDPDHCRQAYSVYAFMISLGGCLGYLLPAIDWDTSALAPYLGTQEECLFGLLTLIFLTCVAATLLVAEEAALGPTEPAEGLSAPSLSPHCCPCRARLAFRNLGALLPRLHQLCCRMPRTLRRLFVAELCSWMALMTFTLFYTDFVGEGLYQGVPRAEPGTEARRHYDEGVRMGSLGLFLQCAISLVFSLVMDRLVQRFGTRAVYLASVAAFPVAAGATCLSHSVAVVTASAALTGFTFSALQILPYTLASLYHREKQVFLPKYRGDTGGASSEDSLMTSFLPGPKPGAPFPNGHVGAGGSGLLPPPPALCGASACDVSVRVVVGEPTEARVVPGRGICLDLAILDSAFLLSQVAPSLFMGSIVQLSQSVTAYMVSAAGLGLVAIYFATQVVFDKSDLAKYSA
# B4: NUCKS1: PARK16 locus gene overexpression vector (protein, UniProt Q9H1E3 1-243, looked up)
# Nuclear ubiquitous casein and …: MSRPVRNRKVVDYSQFQESDDADEDYGRDSGPPTKKIRSSPREAKNKRRSGKNSQEDSEDSEDKDVKTKKDDSHSAEDSEDEKEDHKNVRQQRQAASKAASKQREMLMEDVGSEEEQEEEDEAPFQEKDSGSDEDFLMEDDDDSDYGSSKKKNKKMVKKSKPERKEKKMPKPRLKATVTPSPVKGKGKVGRPTASKASKEKTPSPKEEDEEPESPPEKKTSTSPPPEKSGDEGSEDEAPSGED
# B5: Rab7L1WT: TH-driven wild-type Drosophila RAB7L1 orthologue (termed lightoid) transgene (protein)
# chain: MGSRDHLFKVLVVGDAAVGKTSLVQRYSQDSFSKHYKSTVGVDFALKVLQWSDSEMVRLQLWDIAGQERFTSMTRLYYRDASACVIMFDVTNATTFSNSQRWKQDLDSKLTLPSGEPVPCLLLANKSDLSPWAVSRDQIDRFSKENGFTGWTETSVKENKNINEAMRVLVEKMMNNSREDIMSSSTQGNYINLQTKPSPGWTCC
# modifications: left off: large carriers
# notes: TH-driven wild-type Drosophila RAB7L1 orthologue (termed lightoid) transgene
# B6: RAB5A: Rab family member expression vector (protein, UniProt P20339 1-215, looked up)
# Ras-related protein Rab-5A: MASRGATRPNGPNTGNKICQFKLVLLGESAVGKSSLVLRFVKGQFHEFQESTIGAAFLTQTVCLDDTTVKFEIWDTAGQERYHSLAPMYYRGAQAAIVVYDITNEESFARAKNWVKELQRQASPNIVIALSGNKADLANKRAVDFQEAQSYADDNSLLFMETSAKTSMNVNEIFMAIAKKLPKNEPQNPGANSARGRGVDLTEPTQPTRNQCCSN
# B7: RAB3A: Rab family member expression vector (protein, UniProt P20336 1-220, looked up)
# Ras-related protein Rab-3A: MASATDSRYGQKESSDQNFDYMFKILIIGNSSVGKTSFLFRYADDSFTPAFVSTVGIDFKVKTIYRNDKRIKLQIWDTAGQERYRTITTAYYRGAMGFILMYDITNEESFNAVQDWSTQIKTYSWDNAQVLLVGNKCDMEDERVVSSERGRQLADHLGFEFFEASAKDNINVKQTFERLVDVICEKMSESLDTADPAVTGAKQGPQLSDQQVPPHQDCAC
# Columns and labels:
# [1] = test system: Drosophila model of LRRK2 G2019S neurodegeneration; assay: Drosophila adult survival: Rab modifier screen of the LRRK2 G2019S early adult lethality phenotype; assay type: in vivo; settings: for Average adult lifespan: TH-driven Rab GTPase transgene co-expressed with LRRK2 G2019S in Drosophila dopamine neurons, days post-eclosion; for rescue of the LRRK2 G2019S premature mortality phenotype (survival): co-expression with LRRK2 G2019S in Drosophila dopamine neurons
# Text: To pursue potential mechanisms of LRRK2 pathology in vivo, a Drosophila model was established. […] Dopamine neuron-selective expression of human familial PD-associated G2019S-mutant LRRK2—using either a tyrosine hydroxylase (TH) (Friggi-Grelin et al., 2003) or dopa decarboxylase (DDC) promoter-Gal4 driver (Fischer et al., 1988)—induced premature mortality of young adult animals (FIG. 4A; nontransgenic mean lifespan 37.1 days+/−1; G2019S mean lifespan 4.8 days+/−0.2), akin to previous reports (Ng et al., 2009).
# Subsequently a targeted screen for potential genetic modifiers of the LRRK2 G2019S mutant phenotype was performed, based on the idea that LRRK2 may modify a specific intracellular trafficking process, and focused on RAB7L1. A series of 16 Drosophila Rab genes, (see Table 4; out of 33 identified in Drosophila), or CA or IN forms of these (Zhang et al., 2007), were investigated.
# Briefly, LRRK2 G2019S mutants were mated with a panel of previously described transgenic Drosophila strains that allow for overexpression of wild-type (WT) or constitutively active (CA), forms of the Rab genes (Zhang et al., 2007), using a standard balancer chromosome-based mating scheme. Co-expression of a majority of these Rab transgenes with LRRK2 within dopamine neurons produced no effect on the survival of animals co-expressing LRRK2 G2019S (FIG. 4A; Table 4).
# (§1) Drosophila were cultured by standard methods on yeast-cornmeal-agar medium at 25° C. Wild-type and mutant G2019S LRRK2 transgenes were expressed specifically in catecholaminergic neurons, including dopamine neurons, using the Gal4-UAS system described (Fischer et al., 1988). Driver lines used include OK6 (motor neuron), Gmr (eye), G14 (muscle), TH (dopaminergic neuron), and DDC (dopaminergic neuron). A UAS-GFP::nuclear localization sequence (NLS) marker was used to visualize nucleii of cells in which trangenes were expressed (stock 4775 (w 1118; P{UAS-GFP.nls}14), Drosophila Stock Center, Bloomington, Ind.). For the RAB screen, UAS-LRRK2 (G2019S) transgenic Drosophila, crossed with the TH-Gal4 driver, were screened against a UAS-Rab transgenic library (Zhang et al., 2007). Crossings were typically performed using standard balancer chromosome techniques. To generate strains in which the homozygous LRRK2 transgene and another (Driver or marker) transgene lay on the same chromosome (III), genetic recombination was using standard techniques. Adult Drosophila mushroom bodies were dissected as in (Wu and Luo, 2006) and imaged immediately, without fixation, using a Zeiss LSM510 Meta confocal fluorescent microscope. For mortality curves, transgenic Drosophila surviving through adult metamorphosis were counted daily, from the day of pupal eclosion onward. Locomotion deficits were assessed by methods know in the art.
# [2] = test system: Lrrk mutant (−/−) Drosophila; assay: Negative geotaxis analysis of lrrk mutant Drosophila; assay type: in vivo; settings: pan-neuronal expression in lrrk mutant (−/−) Drosophila
# Experimental: FIG. 11 is a bar graph showing a negative geotaxis analysis of lrrk mutant Drosophila. […] Bars represent Mean times to climb 10 cm upward in a cylinder are represented. Error bars are SEM. ***: p<0.001, for comparison with the non-transgenic group by ANOVA (df=3, F=13.14) followed by Tukey HSD post hoc analysis.
# as §1, with “To generate strains in which the homozygous LRRK2 transgene and another (Driver or marker) transgene lay on the same chromosome (III), genetic recombination was using standard techniques. Adult Drosophila mushroom bodies were dissected as in (Wu and Luo, 2006) and imaged immediately, without fixation, using a Zeiss LSM510 Meta confocal fluorescent microscope.” left out
# [3] = test system: rat primary cortical neurons; assay: Neurite length assay in transfected primary cortical neuron cultures; assay type: cell-based; settings: co-transfection with LRRK2 G2019S (0.5 μg/well); test vector 1 μg/well
# Text: As 5 candidate genes are present within the PARK16 locus (SLC45A3, NUCKS, RAB7L1, SLC41A1, and PM20D1), each of the genes were experimentally screened for a functional interaction with LRRK2 (FIG. 2A). A previously-described primary rat neuron in vitro culture model was used, in which transient expression of familial PD-associated LRRK2 G2019S or R1441C mutant alleles leads to a marked reduction in neurite process length (MacLeod et al., 2006). […] RAB7L1 is a small cytosolic GTPase, structurally distinct from RAB7 despite its name (also known as RAB29) (Shimizu et al., 1997). […] But the function of RAB7L1 in CNS neurons remains unknown. Orthologues of RAB7L1 in other organisms, including C. elegans Glo-1 and Drosophila melanogaster Lighloid, have been implicated in trafficking to lysosome-related organelles (Hermann et al., 2005) and in the regulation of neurite process length (Grill et al., 2007), reminiscent of LRRK2 mutant phenotypes (MacLeod et al., 2006). Thus this gene was of particular interest.
# Sprague-Dawley rat or mouse PI primary dissociated cortical cultures were prepared and transfected essentially as described (Xia et al., 1996) with the following modifications: cells were plated at high density, approximately 250,000 cells/cm2, in 24-well plates with 500 ul medium/well. Culture medium used for plating cells was Neurobasal-A supplemented with 2% B-27 and 10% FBS. At 1 day after plating, medium was changed to reduced serum (1% FBS+added antimitotic agents: 70 μM uridine and 25 μM 5-fluorodeoxyuridine) and replaced weekly thereafter; for transfections no DMSO was added to the transfection mixture, cells were not subjected to glycerol shock, and a total of 3 μg plasmid DNA was used per well. Cells were fixed in 4% PFA and immunostained with mouse α-RAB7L1 (Santa Cruz, 1:100), and rabbit monoclonal α-LRRK2 (Michal J. Fox Foundation MJFF4, 1:100), then with appropriate fluorescent secondaries (Jackson, 1:1000-2000). Neurite length and neurite puncta (defined as swellings greater than 2 um in diameter) were counted for at least 20 neurons per condition. Mean puncta number per neuron was normalized to total average neurite length versus wild-type LRRK2 transfected cells. Fluorescent microscopy was performed using a Nikon TE 2000-S microscope and a Zeiss LSM510 Meta confocal microscope. Images were analyzed using Image-Pro Plus (Mediacybernetics) software version 5.1.0.20.
molecule,measurement,setting,value
human LRRK2 WT: wild-type human LRRK2 transgene,phenotype on transgenic expression,[1]; dopamine neuron-selective expression of the LRRK2 transgene alone,did not lead to a discernible phenotype
same,defective negative geotaxis (time to climb 10 cm),[2],can be rescued
SLC41A1: PARK16 locus gene overexpression vector,LRRK2 mutation-induced neurite length phenotype,[3],failed to rescue
G2019S: human familial PD-associated G2019S-mutant LRRK2 transgene,mean lifespan,[1]; dopamine neuron-selective expression of the LRRK2 transgene alone (TH or DDC Gal4 driver),4.8 days
same,defective negative geotaxis (time to climb 10 cm),[2],can be rescued
B1,LRRK2 mutation-induced neurite length phenotype,[3],failed to rescue
B2,mean lifespan,[1]; Rab transgene co-expressed with LRRK2 G2019S in dopamine neurons,14.3 days
same,Average adult lifespan,[1],10.2 days
same,rescue of the LRRK2 G2019S premature mortality phenotype (survival),[1],statistically significant—albeit much weaker—survival benefit
B3,LRRK2 mutation-induced neurite length phenotype,[3],failed to rescue
B4,LRRK2 mutation-induced neurite length phenotype,[3],failed to rescue
B5,Average adult lifespan,[1],23.3 days
same,rescue of the LRRK2 G2019S premature mortality phenotype (survival),[1],dramatic rescue
B6,LRRK2 mutation-induced neurite length phenotype,[3],failed to rescue the phenotype
B7,LRRK2 mutation-induced neurite length phenotype,[3],failed to rescue the phenotype

# Reference: patent publication US20160184454A1, “RAB7L1 INTERACTS WITH LRRK2 TO MODIFY INTRANEURONAL PROTEIN SORTING AND PARKINSON'S DISEASE RISK” (THE TRUSTEES OF COLUMBIA UNIVERSITY IN THE CITY OF NEW YORK, priority 2013, published 2016)
